Assay results published in PMC10693595 (2023).

Molecular target: VZV glycoprotein B H527P on extracellular vesicles (varicella-zoster virus (VZV)) (UniProt P09257)
Experiment: cryo-EM structure; cryo-electron tomography with subtomogram averaging (EMAN2) of gB[H527P] in the membranes of extracellular vesicles from BHK-21 cells; C3 symmetry applied; two classes by focused classification

Substance: VZV glycoprotein B H527P on extracellular vesicles (from UniProt P09257 72-931) (natural protein)
- stoichiometry N: 3
